This note sets out measurements from patent US20200255487A1, “A Cell-Based Seeding Assay for Huntingtin Aggregation” (THE REGENTS OF THE UNIVERSITY OF CALIFORNIA, priority 2017, published 2020).

The assay has as its system HTT-ΔN17-46Q-GFP. The assay can be described thus: cell-based HTT seeding assay (ΔN17-1E cells). Also noted: species or system human. The conditions noted are these: ΔN17-1E (HEK293) cells; substance applied as seed; FIG. 4. From the text: Described herein is the development of a cell-based HTT seeding assay. A DNA construct encoding Exon1 of mutant human HTT with a 46 polyQ repeat was designed (FIG. 1C). This mutant HTT was engineered to delete amino acid residues 2-16 and was fused with a green fluorescent protein (GFP) at its C-terminus, named HTT-ΔN17-46Q-GFP hereafter. The HTT-ΔN17-46Q-GFP was then cloned into a pcDNA3 vector and transfected into HEK293 cells. Clones of stably transfected cells expressing HTT-ΔN17-46Q-GFP were selected to generate individual cell lines. Expression of the transgene in the cell lines was characterized to confirm its morphology, expression level and subcellular localization. Line 1E, named ΔN17-1E cells, was selected based on it moderate transgene expression with minimal protein aggregates at the baseline. Based on this cell line, a cell-based HTT seeding assay was developed. Extracellular application of preformed HTT aggregates or biosamples from HD patients as “seeds”, to ΔN17-1E cells could induce intracellular aggregation of HTT-ΔN17-46Q-GFP proteins (FIG. 1 through FIG. 3). […] Currently, the assay has been optimized to be performed in a high-throughput format, making it more capable with large quantity of samples. […]

B1: preformed mHTT-exon1 seeds: preformed mHTT-exon1 seeds derived from in vitro formed mHTT fibrils by sonication (protein)
chain: MATLEKLMKAFESLKSFQQQQQQQQQQQQQQQQQQQQQPPPPPPPPPPPQLPQPPPQAQPLLPQPQPPPPPPPPPPGPAVAEEPLHRP
With B1, the “induction of intracellular HTT-ΔN17-46Q-GFP aggregation by extracellularly applied seeds” value is “forms HTT-ΔN17-46Q-GFP aggregates”.
